The text below walks through data of publication PMC3390244.

The target of this data set is human transferrin receptor (hTfR, CD71) (human, UniProt P02786 89-760). Put plainly: filter binding.
Sequence of human transferrin receptor (hTfR, CD71) (P02786 89-760): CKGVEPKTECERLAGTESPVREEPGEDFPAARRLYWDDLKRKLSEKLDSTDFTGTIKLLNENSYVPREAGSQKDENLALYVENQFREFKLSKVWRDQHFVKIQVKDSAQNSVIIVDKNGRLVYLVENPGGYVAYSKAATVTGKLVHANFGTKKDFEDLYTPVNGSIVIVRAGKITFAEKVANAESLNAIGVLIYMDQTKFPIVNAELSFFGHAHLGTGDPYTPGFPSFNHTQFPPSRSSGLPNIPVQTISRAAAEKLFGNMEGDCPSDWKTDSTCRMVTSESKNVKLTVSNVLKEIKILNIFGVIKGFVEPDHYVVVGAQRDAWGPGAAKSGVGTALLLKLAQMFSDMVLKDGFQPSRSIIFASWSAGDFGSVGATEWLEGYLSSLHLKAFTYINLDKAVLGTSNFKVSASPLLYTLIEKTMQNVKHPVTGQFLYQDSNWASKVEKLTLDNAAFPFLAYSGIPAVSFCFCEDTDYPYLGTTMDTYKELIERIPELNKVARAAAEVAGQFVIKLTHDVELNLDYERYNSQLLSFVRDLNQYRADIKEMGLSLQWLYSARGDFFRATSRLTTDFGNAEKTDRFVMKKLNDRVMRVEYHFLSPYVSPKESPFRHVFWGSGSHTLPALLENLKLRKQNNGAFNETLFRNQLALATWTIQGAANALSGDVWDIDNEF

B1: c2.min (structured_RNA)
RNA: GGGGGAUCAAUCCAAGGGACCCGGAAACGCUCCCUUACACCCC
modifications: 2'-fluoro C and U; 3' inverted dT; 5' thiol
What is called Kd is the free concentration of one partner at which half of the binding sites on the other are occupied at equilibrium, for simple one-to-one binding. A high value points to weaker binding. In turn, B1 came in with a Kd of 102 nM.
